In US20060239998A1 (D COLLEN RESEARCH FOUNDATION VZW, published 2006):

Molecular target: human monoclonal antibody BO2C11, FVIII-specific IgG4kappa inhibitory antibody against the C2 domain
Assay: cell-based or functional assay

B1: Fab fragments of Ab 14C12 (Fab, V domains shown)
VH: EVQLQQSGPELVKPGASVKLSCKASGYTFTSSVMHWLKQKSGQGLEWIGYINPYNDGTKYNEKFTAKATLTSDKSSSTVYMELSGLTSEDFAVYYCARSGGLLRGYWYFDVWGAGTTVTVSS
VL: DLVLTQSPATLSVTPGDSVSLSCRASQDITNTLHWYHQKSHESPRLLIKYVSQSISGIPSRFSGSGSGTVFTLSINSVETEDFGVYFCQQSTSWPYTFGGGTKLEIKR
B1 was tested, and the “neutralisation of BO2C11 inhibitory activity (chromogenic assay)” value was 50 % neutralisation at 1/8 BO2C11/Fab molar ratio.
